Biological target: Atezolizumab
Assay: microscale thermophoresis instrument, ligand-induced fluorescence change; f-F0 held at 10 nM, the concentration axis is that of atezolizumab

EC50 (read off the curve): 0.02 µM
Substance: peptide f-F0 (FITC-labeled parental Fc-III peptide F0, disulfide bond replaced by a thioether bond)

Source: patent US20240024504A1, “SITE-SELECTIVE LYSINE ACETYLATION OF HUMAN IMMUNOGLOBULIN G AND IgG-RELATED PRODUCTS FOR IMMUNOTHERAPY” (The Chinese University of Hong Kong, priority 2022, published 2024)
